Results reported in PMC3984155.

Key:
[1] = target: Litopenaeus vannamei Proliferating Cell Nuclear Antigen (Litopenaeus vannamei); experiment: SEC; purified LvPCNA at 1 mg/ml on a Superdex 200 column, elution compared with known molecular-mass standards
[2] = target: Litopenaeus vannamei Proliferating Cell Nuclear Antigen (Litopenaeus vannamei); experiment: crystal structure; X-ray, 3 Å, space group C2; crystals from 300 mM CaCl2, 100 mM sodium HEPES pH 7.5, 30% v/v PEG 400; molecular replacement

stoichiometry N [1]: 3
stoichiometry N [2]: 3
Substance: Litopenaeus vannamei Proliferating Cell Nuclear Antigen (natural protein)
